In paper PMC10248553 (The Journal of Biological Chemistry, 2023):
Where no end group is shown, it is not given here.

Tests used:
[1] = target: RSK2 (44–367) (human, UniProt P51812 44-367); assay: ITC
[2] = target: RSK2 (46–346) (human, UniProt P51812 46-346); assay: crystal structure

Binder | Kd [1] | binding result [1] | binding result [2]
Ac-GDDDVFTTATDS [SPRED2 (140–151) peptide] | 36 µM | – | –
SPRED2 (11–181) (domain or fragment) SYIVRVKAVVMTRDDSSGGWFPQEGGGISRVGVCKVMHPEGNGRSGFLIHGERQKDKLVVLECYVRKDLVYTKANPTFHHWKVDNRKFGLTFQSPADARAFDRGVRKAIEDLIEGSTTSSSTIHNEAELGDDDVFTTATDSSSNSSQKREQPTRTISSPTSCEHRRIYTLG | – | binds | –
Ac-ELGDDDVFTTATDSSS [SPRED2 (138–153) peptide] | 20 µM | – | –
Ac-STIHNEAELGDDDVFTTATDSSSNSSQKRE [SPRED2 (131–160) peptide] | – | binds | binds
SPRED2 (104–181) (domain or fragment) SPADARAFDRGVRKAIEDLIEGSTTSSSTIHNEAELGDDDVFTTATDSSSNSSQKREQPTRTISSPTSCEHRRIYTLG | ~9 µM | – | –
